Substitutions are numbered along the chain they refer to. In names and notes the source's numbering stands.
B1: EcFDH-H (Escherichia coli formate dehydrogenase H) (Escherichia coli K-12) (protein)
chain: MKKVVTVCPYCASGCKINLVVDNGKIVRAEAAQGKTNQGTLCLKGYYGWDFINDTQILTPRLKTPMIRRQRGGKLEPVSWDEALNYVAERLSAIKEKYGPDAIQTTGSSRGTGNETNYVMQKFARAVIGTNNVDCCARVUHGPSVAGLHQSVGNGAMSNAINEIDNTDLVFVFGYNPADSHPIVANHVINAKRNGAKIIVCDPRKIETARIADMHIALKNGSNIALLNAMGHVIIEENLYDKAFVASRTEGFEEYRKIVEGYTPESVEDITGVSASEIRQAARMYAQAKSAAILWGMGVTQFYQGVETVRSLTSLAMLTGNLGKPHAGVNPVRGQNNVQGACDMGALPDTYPGYQYVKDPANREKFAKAWGVESLPAHTGYRISELPHRAAHGEVRAAYIMGEDPLQTDAELSAVRKAFEDLELVIVQDIFMTKTASAADVILPSTSWGEHEGVFTAADRGFQRFFKAVEPKWDLKTDWQIISEIATRMGYPMHYNNTQEIWDELRHLCPDFYGATYEKMGELGFIQWPCRDTSDADQGTSYLFKEKFDTPNGLAQFFTCDWVAPIDKLTDEYPMVLSTVREVGHYSCRSMTGNCAALAALADEPGYAQINTEDAKRLGIEDEALVWVHSRKGKIITRAQVSDRPNKGAIYMTYQWWIGACNELVTENLSPITKTPEYKYCAVRVEPIADQRAAEQYVIDEYNKLKTRLREAALA
notes: full-length selenocysteine-containing enzyme, C-terminal His6-tag, from pTrc99a-fdhF in E. coli JG-X (MC4100 delta-fdhF delta-iscR) with helper pSU21-selC; holds Mo(MGD)2 and one [4Fe-4S] cluster
B2: EcFDH-H (Escherichia coli formate dehydrogenase H) (Escherichia coli K-12; K44R) (protein)
chain: B1 chain with K44R
notes: as for B1

What was measured:
[1] = substrate: O=CO; assay: purified protein; conditions: 2 mM BV2+ fixed, formate 0.125-200 mM, 50 mM phosphate pH 7.5, 25 °C, anaerobic
[2] = substrate: c1ccc(C[n+]2ccc(-c3cc[n+](Cc4ccccc4)cc3)cc2)cc1; assay: purified protein; format: biochemical, Escherichia coli; conditions: 10 mM formate fixed, BV2+ 0.125-20 mM, 50 mM phosphate pH 7.5, 25 °C, anaerobic, artificial electron acceptor

Protein	Km [1] [µM]	Km [2] [µM]
B1	1850 ± 270	2750 ± 500
B2	58610 ± 6150	2210 ± 370

— publication PMC12176258, “Stabilization of the catalytically active structure of a molybdenum‐dependent formate dehydrogenase depends on a highly conserved lysine residue” (The Febs Journal, 2025)
